Data as given in paper PMC6310132.
One block for each substance: values may come before it.

How the values were obtained:
Test in all cases: SPR
[1] = biological target: N-ethylmaleimide-sensitive factor (NSF), pRSET-A fusion protein (mouse) (UniProt P46460)
[2] = biological target: rat organ of Corti AP2mu1, pRSET-A fusion protein (SPR and Figure 7A,B) (rat) (UniProt P84092)
[3] = biological target: trout saccular hair cell dopamine D1A4 carboxy terminus, pRSET-A fusion protein (trout)
[4] = biological target: trout saccular hair cell otoferlin C2F domain, pRSET-A fusion protein (trout)
[5] = biological target: trout saccular hair cell snapin, pRSET-A fusion protein (trout)

Sequence of N-ethylmaleimide-sensitive factor (NSF), pRSET-A fusion protein (mouse) (P46460 whole entry, the tested form may be a part): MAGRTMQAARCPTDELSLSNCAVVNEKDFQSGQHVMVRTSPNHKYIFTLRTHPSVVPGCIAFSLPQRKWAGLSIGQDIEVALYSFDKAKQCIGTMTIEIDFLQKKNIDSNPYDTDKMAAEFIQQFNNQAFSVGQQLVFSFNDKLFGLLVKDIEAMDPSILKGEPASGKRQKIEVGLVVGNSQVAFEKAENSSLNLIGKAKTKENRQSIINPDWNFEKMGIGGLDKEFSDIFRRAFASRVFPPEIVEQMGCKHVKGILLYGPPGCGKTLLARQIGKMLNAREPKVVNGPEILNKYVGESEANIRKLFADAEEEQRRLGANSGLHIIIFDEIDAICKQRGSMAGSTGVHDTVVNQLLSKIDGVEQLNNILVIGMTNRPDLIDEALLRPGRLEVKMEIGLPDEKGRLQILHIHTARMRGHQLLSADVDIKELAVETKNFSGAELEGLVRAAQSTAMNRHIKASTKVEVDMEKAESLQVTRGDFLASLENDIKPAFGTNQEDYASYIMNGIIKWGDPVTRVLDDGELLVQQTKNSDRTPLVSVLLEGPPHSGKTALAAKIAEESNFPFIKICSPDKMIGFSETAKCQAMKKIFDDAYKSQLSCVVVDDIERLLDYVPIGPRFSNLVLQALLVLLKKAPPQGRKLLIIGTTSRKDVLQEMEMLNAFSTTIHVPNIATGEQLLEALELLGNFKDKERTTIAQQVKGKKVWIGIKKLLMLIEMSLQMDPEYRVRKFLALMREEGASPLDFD

Kd [1]: 2.29 nM
koff [1]: 0.00073 s⁻¹
Kd [2]: 129 nM
koff [2]: 0.00273 s⁻¹
kon [2]: 21200 M⁻¹ s⁻¹
Substance: rat organ of Corti otoferlin C2F domain, pRSET-A fusion protein used for SPR (domain or fragment)

Kd [3]: 26.9 nM
koff [3]: 0.00784 s⁻¹
Kd [4]: 23.4 nM
koff [4]: 0.00348 s⁻¹
Substance: trout saccular hair cell snapin, pRSET-A fusion protein (domain or fragment)

Kd [5]: 13 nM
koff [5]: 0.00407 s⁻¹
Substance: trout saccular hair cell otoferlin C2F domain, pRSET-A fusion protein (domain or fragment)

Kd [5]: 14.6 nM
koff [5]: 0.00174 s⁻¹
Substance: trout saccular hair cell dopamine D1A4 carboxy terminus, pRSET-A fusion protein (domain or fragment)
